Patent US20200392227A1 (LYVGEN BIOPHARMA, published 2020)
Read-outs that look alike come from different tables or passages of the source.

T1: human FcRIIA protein (MednaBio, E1033) (human, UniProt P12318 34-218, limits assumed)
T1 construct: Bought; also called FcγRIIA
T1 sequence (looked up): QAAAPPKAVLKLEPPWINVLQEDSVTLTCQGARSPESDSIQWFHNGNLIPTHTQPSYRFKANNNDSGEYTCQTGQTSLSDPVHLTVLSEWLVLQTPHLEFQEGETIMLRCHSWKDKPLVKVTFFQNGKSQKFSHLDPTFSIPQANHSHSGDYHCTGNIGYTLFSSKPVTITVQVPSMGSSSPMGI

T2: human FcRIIB/C protein (MednaBio, E1034) (human, UniProt P31994 43-217, limits assumed)
T2 construct: Bought as FcRIIB/C; also called FcγRIIB; CD32B
T2 sequence (looked up): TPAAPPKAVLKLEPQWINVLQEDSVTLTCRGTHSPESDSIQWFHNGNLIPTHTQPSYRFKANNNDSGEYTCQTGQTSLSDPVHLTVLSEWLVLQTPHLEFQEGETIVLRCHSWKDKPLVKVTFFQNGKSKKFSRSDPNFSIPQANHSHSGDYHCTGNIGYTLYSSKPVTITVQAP

T3: human FcγRIIC expressed on CHO cells (human, UniProt P31995 43-323)
T3 construct: whole, on cells
T3 sequence (looked up): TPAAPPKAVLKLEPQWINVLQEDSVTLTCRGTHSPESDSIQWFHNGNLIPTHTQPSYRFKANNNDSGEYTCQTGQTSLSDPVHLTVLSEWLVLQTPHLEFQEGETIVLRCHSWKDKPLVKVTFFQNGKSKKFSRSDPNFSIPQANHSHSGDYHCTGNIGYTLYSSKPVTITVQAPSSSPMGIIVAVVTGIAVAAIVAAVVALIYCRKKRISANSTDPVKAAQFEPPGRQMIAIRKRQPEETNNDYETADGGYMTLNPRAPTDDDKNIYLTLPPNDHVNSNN


Legend:
[1] = molecular target: T4, human FcRI protein (MednaBio, E1031) (human, UniProt P12314 16-288, limits assumed); experiment: BLI
T4 construct: Bought; loaded on anti-penta-HIS biosensors; also called FcγRI
T4 sequence (P12314 16-288 limits assumed): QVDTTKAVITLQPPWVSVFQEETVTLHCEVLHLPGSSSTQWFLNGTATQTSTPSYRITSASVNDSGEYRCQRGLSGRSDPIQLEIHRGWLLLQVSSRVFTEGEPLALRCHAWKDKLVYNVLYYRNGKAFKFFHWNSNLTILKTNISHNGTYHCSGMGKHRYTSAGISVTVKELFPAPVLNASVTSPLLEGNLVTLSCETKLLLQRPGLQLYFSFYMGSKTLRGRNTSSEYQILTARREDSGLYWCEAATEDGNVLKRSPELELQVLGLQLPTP
Description: (§1) These IgG mutants were tested for binding to a panel of human Fc receptors (FcRs), including FcRn, using the Octet Red96 System (ForteBio, Model #Red96). Human FcR proteins were purchased commercially (FcRn, MednaBio, E1032; FcRI, MednaBio, E1031; FcRIIA, MednaBio, E1033; FcRIIB/C, MednaBio, E1034; FcRIIIA-F158, MednaBio, E1036; FcRIIIA-V158, MednaBio, E1035; FcRIIIB, MednaBio, E1037). All Fey receptor assays were performed at pH 7.2; all FcRn assays were performed at pH 6. The Fey receptors were loaded onto anti-penta-HIS1K (ForteBio, Cat #18-5122) biosensors at a concentration of 20 μg/mL. The loaded biosensors was then be dipped into an 8-point 1:3 dilution series of the test IgG molecules (including controls and the mutants described herein) in PBS with 0.1% BSA, 0.02% Tween-20 (pH 7.2) at a starting concentration of 300 nM. Kinetic analysis was performed using a 1:1 binding model and global fitting.

[2] = molecular target: T1, human FcRIIA protein (MednaBio, E1033); experiment: BLI
Description: as §1

[3] = molecular target: T2, human FcRIIB/C protein (MednaBio, E1034); experiment: BLI
Description: as §1

[4] = molecular target: T5, human FcRIIIA-F158 protein (MednaBio, E1036) (human, UniProt P08637 17-208); experiment: BLI
T5 construct: Bought; also called FcγRIIIA(F)
T5 sequence (P08637 17-208 limits assumed): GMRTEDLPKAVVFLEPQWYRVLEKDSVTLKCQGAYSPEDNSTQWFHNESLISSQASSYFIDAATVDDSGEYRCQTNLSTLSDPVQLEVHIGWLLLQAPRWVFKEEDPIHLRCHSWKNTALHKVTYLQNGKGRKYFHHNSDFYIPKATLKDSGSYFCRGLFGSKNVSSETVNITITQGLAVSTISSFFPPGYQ
Description: as §1

[5] = molecular target: T6, human FcRIIIA-V158 protein (MednaBio, E1035) (human, UniProt P08637 17-208); experiment: BLI
T6 construct: Bought; also called FcγRIIIA(V); FcgRIIIA(V)
T6 sequence (P08637 17-208 F176V): as the sequence (P08637 17-208 limits assumed) above, with F160V counted along it
Description: as §1

[6] = molecular target: T7, human FcRIIIB protein (MednaBio, E1037) (human, UniProt O75015 17-200); experiment: BLI
T7 construct: Bought; also called FcγRIIIB; FcgRIIIB
T7 sequence (O75015 17-200 limits assumed): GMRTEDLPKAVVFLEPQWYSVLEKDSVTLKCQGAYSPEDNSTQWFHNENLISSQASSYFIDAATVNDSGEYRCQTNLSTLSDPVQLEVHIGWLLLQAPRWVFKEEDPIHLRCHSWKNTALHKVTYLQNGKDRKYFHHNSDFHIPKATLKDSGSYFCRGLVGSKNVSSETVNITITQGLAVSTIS
Description: as §1

[7] = molecular target: T8, human FcRn protein (MednaBio, E1032) (human, UniProt P55899 24-297; P61769 21-119); experiment: BLI
T8 construct: Bought; assays at pH 6
Description: as §1

[8] = molecular target: T3, human FcγRIIC expressed on CHO cells; experiment: FACS, CHO cells expressing FcγRIIC
Description: FIGS. 1A-1W are charts showing binding activity of various IgG variants as indicated to different types of Fcγ receptors expressed on CHO-K1 cells at the various concentrations as indicated. The concentrations of each IgG variant, from left to right, are 0 μg/ml, 0.3 μg/ml, 1 μg/ml, 3 μg/ml, and 10 μg/ml in FIGS. 1A-1C, 1E-J, 1L-1M, 1P-1R, and 1T-1V. For FIGS. 1D, 1K, 10, 1S, and 1w the bars, from left to right, correspond to the following concentrations of IgG variant: 0.3 μg/ml, 1 μg/ml, 3 μg/ml, and 10 μg/ml.
(§2) For FACS analysis of the IgG mutants' binding to different FcγRs, FcγR overexpressing CHO cells were harvested using trypsin-EDTA and were suspended in cold staining buffer (3% BSA in PBS). Test IgG mutants, which were diluted in staining buffer, were added into the cells. The mixture was incubated 4° C. for 2 hours, and then washed twice with cold staining buffer and re-suspended in PE-labeled anti-human IgG followed by incubation at 4° C. for 2 hours. The mixture was washed twice with staining buffer and re-suspended in 2% PFA in PBS for FACS.

[9] = molecular target: T8, human FcRn protein (MednaBio, E1032); experiment: BLI; remark: listed apart in the source
Outline: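 Binding was measured by biolayer interferometry on an Octet Red96 System, with commercial human Fc receptor proteins loaded at 20 μg/mL onto anti-penta-HIS biosensors. Sensors were dipped into an 8-point 1:3 dilution series of test IgG starting at 300 nM in PBS with 0.1% BSA and 0.02% Tween-20. Fcγ receptor assays ran at pH 7.2 and FcRn assays at pH 6. Kd, kon and koff came from global fitting to a 1:1 binding model.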

[10] = molecular target: T9, human FcγRI expressed on CHO cells (human, UniProt P12314 16-374); experiment: FACS, CHO cells expressing FcγRI
T9 construct: whole, on cells
T9 sequence (P12314 16-374): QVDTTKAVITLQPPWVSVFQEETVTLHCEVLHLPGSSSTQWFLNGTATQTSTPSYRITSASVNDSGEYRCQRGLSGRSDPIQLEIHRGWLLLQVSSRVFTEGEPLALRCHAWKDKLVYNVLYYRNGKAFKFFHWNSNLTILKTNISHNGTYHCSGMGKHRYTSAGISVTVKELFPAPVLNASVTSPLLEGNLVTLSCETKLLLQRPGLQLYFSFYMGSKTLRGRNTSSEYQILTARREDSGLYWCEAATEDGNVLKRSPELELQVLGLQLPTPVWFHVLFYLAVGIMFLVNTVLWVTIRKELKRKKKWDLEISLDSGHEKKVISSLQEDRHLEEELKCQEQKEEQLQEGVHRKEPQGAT
Description: as §2

Row | Kd [1] [µM] | koff [1] [s⁻¹] | kon [1] [M⁻¹ s⁻¹] | Kd [2] [µM] | koff [2] [s⁻¹] | kon [2] [M⁻¹ s⁻¹] | binding result [3] | Kd [4] [µM] | koff [4] [s⁻¹] | kon [4] [M⁻¹ s⁻¹] | binding result [5] | binding result [6] | Kd [7] [µM] | koff [7] [s⁻¹] | kon [7] [M⁻¹ s⁻¹] | binding result [8] | binding result [10] | Binder | other results
1 | 0.2 | 0.13 | 650000 | 0.44 | 0.11 | 250000 | no binding (tested: 300 nM) | 0.3 | 0.1 | 350000 | no binding (tested: 300 nM) | no binding (tested: 300 nM) | 0.011 | 0.0078 | 700000 | no binding (tested: 10 ug/ml) | – | anti-CD137 IgG1 with Fc variant G1m1 (antibody, copies: 2 + 2) heavy: EVQLVQSGAEVKKPGESLRISCKGSGYSFSTYWISWVRQMPGKGLEWMGKIYPGDSYTNYSPSFQGQVTISADKSISTAYLQWSSLKASDTAMYYCARGYGIFDYWGQGTLVTVSSASTKGPSVFPLAPSSKSTSGGTAALGCLVKDYFPEPVTVSWNSGALTSGVHTFPAVLQSSGLYSLSSVVTVPSSSLGTQTYICNVNHKPSNTKVDKKVEPKSCDKTHTCPPCPAPELLSVFLFPPKPKDTLMISRTPEVTCVVVDVSHEDPEVKFNWYVDGVEVHNAKTKPREEQYNSTYRVVSVLTVLHQDWLNGKEYKCKVSNKALPAPIEKTISKAKGQPREPQVYTLPPSREEMTKNQVSLTCLVKGFYPSDIAVEWESNGQPENNYKTTPPVLDSDGSFFLYSKLTVDKSRWQQGNVFSCSVMHEALHNHYTQKSLSLSPGK light: SYELTQPPSVSVSPGQTASITCSGDNIGDQYAHWYQQKPGQSPVLVIYQDKNRPSGIPERFSGSNSGNTATLTISGTQAMDEADYYCATYTGFGSLAVFGGGTKLTVLGQPKAAPSVTLFPPSSEELQANKATLVCLISDFYPGAVTVAWKADSSPVKAGVETTTPSKQSNNKYAASSYLSLTPEQWKSHRSYSCQVTHEGSTVEKTVAPTECS | –
2 | – | – | – | – | – | – | – | – | – | – | – | – | – | – | – | – | binds | anti-CD137 IgG4 with Fc variant G4m18 (antibody, copies: 2 + 2) heavy: EVQLVQSGAEVKKPGESLRISCKGSGYSFSTYWISWVRQMPGKGLEWMGKIYPGDSYTNYSPSFQGQVTISADKSISTAYLQWSSLKASDTAMYYCARGYGIFDYWGQGTLVTVSSASTKGPSVFPLAPCSRSTSESTAALGCLVKDYFPEPVTVSWNSGALTSGVHTFPAVLQSSGLYSLSSVVTVPSSSLGTKTYTCNVDHKPSNTKVDKRVESKYGPPCPPCPAPEFLSVFLFPPKPKDTLMISRTPEVTCVVVDVSQEDPEVQFNWYVDGVEVHNAKTKPREEQFNSTYRVVSVLTVLHQDWLNGKEYKCKVSNKGFPSSIEKTISKAKGQPREPQVYTLPPSQEEMTKNQVSLTCLVKGFYPSDIAVEWESNGQPENNYKTTPPVLDSDGSFFLYSRLTVDKSRWQEGNVFSCSVMHEALHNHYTQKSLSLSLGK light: SYELTQPPSVSVSPGQTASITCSGDNIGDQYAHWYQQKPGQSPVLVIYQDKNRPSGIPERFSGSNSGNTATLTISGTQAMDEADYYCATYTGFGSLAVFGGGTKLTVLGQPKAAPSVTLFPPSSEELQANKATLVCLISDFYPGAVTVAWKADSSPVKAGVETTTPSKQSNNKYAASSYLSLTPEQWKSHRSYSCQVTHEGSTVEKTVAPTECS | Kd [9]: 0.011 µM; koff [9]: 0.0068 s⁻¹; kon [9]: 610000 M⁻¹ s⁻¹
3 | 0.002 | 0.00091 | 440000 | 0.068 | 0.057 | 840000 | – | 0.25 | 0.07 | 280000 | – | no binding (tested: 300 nM) | 0.01 | 0.0091 | 900000 | – | – | anti-CD137 IgG2 with Fc variant G2m2 (antibody, copies: 2 + 2) heavy: EVQLVQSGAEVKKPGESLRISCKGSGYSFSTYWISWVRQMPGKGLEWMGKIYPGDSYTNYSPSFQGQVTISADKSISTAYLQWSSLKASDTAMYYCARGYGIFDYWGQGTLVTVSSASTKGPSVFPLAPCSRSTSESTAALGCLVKDYFPEPVTVSWNSGALTSGVHTFPAVLQSSGLYSLSSVVTVPSSNFGTQTYTCNVDHKPSNTKVDKTVERKCCVECPPCPAPPFLGGPSVFLFPPKPKDTLMISRTPEVTCVVVDVSHEDPEVQFNWYVDGVEVHNAKTKPREEQFNSTFRVVSVLTVVHQDWLNGKEYKCKVSNKGLPAPIEKTISKTKGQPREPQVYTLPPSREEMTKNQVSLTCLVKGFYPSDIAVEWESNGQPENNYKTTPPMLDSDGSFFLYSKLTVDKSRWQQGNVFSCSVMHEALHNHYTQKSLSLSPGK light: SYELTQPPSVSVSPGQTASITCSGDNIGDQYAHWYQQKPGQSPVLVIYQDKNRPSGIPERFSGSNSGNTATLTISGTQAMDEADYYCATYTGFGSLAVFGGGTKLTVLGQPKAAPSVTLFPPSSEELQANKATLVCLISDFYPGAVTVAWKADSSPVKAGVETTTPSKQSNNKYAASSYLSLTPEQWKSHRSYSCQVTHEGSTVEKTVAPTECS | Kd [3]: 0.16 µM; koff [3]: 0.099 s⁻¹; kon [3]: 620000 M⁻¹ s⁻¹; Kd [5]: 0.16 µM; koff [5]: 0.033 s⁻¹; kon [5]: 210000 M⁻¹ s⁻¹
4 | – | – | – | 17 | 0.35 | 21000 | no binding (tested: 300 nM) | – | – | – | no binding (tested: 300 nM) | no binding (tested: 300 nM) | 0.021 | 0.0088 | 420000 | no binding (tested: 10 ug/ml) | no binding (tested: 10 ug/ml) | anti-CD137 IgG2 with Fc variant G2m10 (antibody, copies: 2 + 2) heavy: EVQLVQSGAEVKKPGESLRISCKGSGYSFSTYWISWVRQMPGKGLEWMGKIYPGDSYTNYSPSFQGQVTISADKSISTAYLQWSSLKASDTAMYYCARGYGIFDYWGQGTLVTVSSASTKGPSVFPLAPCSRSTSESTAALGCLVKDYFPEPVTVSWNSGALTSGVHTFPAVLQSSGLYSLSSVVTVPSSNFGTQTYTCNVDHKPSNTKVDKTVERKCCVECPPCPAPEVSSVFLFPPKPKDTLMISRTPEVTCVVVDVSHEDPEVQFNWYVDGVEVHNAKTKPREEQFNSTFRVVSVLTVVHQDWLNGKEYKCKVSNKGFPAPIEKTISKTKGQPREPQVYTLPPSREEMTKNQVSLTCLVKGFYPSDIAVEWESNGQPENNYKTTPPMLDSDGSFFLYSKLTVDKSRWQQGNVFSCSVMHEALHNHYTQKSLSLSPGK light: SYELTQPPSVSVSPGQTASITCSGDNIGDQYAHWYQQKPGQSPVLVIYQDKNRPSGIPERFSGSNSGNTATLTISGTQAMDEADYYCATYTGFGSLAVFGGGTKLTVLGQPKAAPSVTLFPPSSEELQANKATLVCLISDFYPGAVTVAWKADSSPVKAGVETTTPSKQSNNKYAASSYLSLTPEQWKSHRSYSCQVTHEGSTVEKTVAPTECS | binding result [1]: no binding (tested: 300 nM); binding result [4]: no binding (tested: 300 nM)
